Measured values as given in publication PMC9443353.

Assays:
[1] = biological target: T1, DENV2 NS1 (Dengue virus serotype 2) (UniProt Q9WDA6); assay: filter binding with qPCR
T1 sequence: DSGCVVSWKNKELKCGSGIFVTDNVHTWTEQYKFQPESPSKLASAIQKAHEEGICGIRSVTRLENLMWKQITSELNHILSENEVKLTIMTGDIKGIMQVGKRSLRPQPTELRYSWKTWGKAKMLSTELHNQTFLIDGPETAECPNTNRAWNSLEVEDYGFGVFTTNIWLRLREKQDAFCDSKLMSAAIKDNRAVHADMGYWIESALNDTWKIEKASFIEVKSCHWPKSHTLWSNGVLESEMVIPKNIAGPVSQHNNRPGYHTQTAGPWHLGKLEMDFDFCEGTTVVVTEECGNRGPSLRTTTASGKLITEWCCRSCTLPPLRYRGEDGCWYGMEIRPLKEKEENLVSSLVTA

[2] = biological target: T2, DENV4 NS1 (Dengue virus serotype 4) (UniProt Q2YHF0); assay: filter binding with qPCR; conditions: ELONA: borate buffer (60 mM in selection), 37 °C, 30 min, pH not stated; specificity: selection buffer, filtration, qPCR; FET: human serum as gate electrolyte …
T2 sequence: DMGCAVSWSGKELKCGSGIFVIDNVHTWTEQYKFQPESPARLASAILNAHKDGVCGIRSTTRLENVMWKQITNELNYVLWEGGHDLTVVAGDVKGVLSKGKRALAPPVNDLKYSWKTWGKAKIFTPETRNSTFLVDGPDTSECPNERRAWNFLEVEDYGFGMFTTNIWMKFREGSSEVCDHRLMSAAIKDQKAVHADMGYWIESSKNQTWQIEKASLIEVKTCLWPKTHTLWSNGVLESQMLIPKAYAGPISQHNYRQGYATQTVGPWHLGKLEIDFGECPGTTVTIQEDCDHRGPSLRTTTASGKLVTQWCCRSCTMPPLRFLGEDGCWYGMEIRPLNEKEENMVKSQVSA

Sequence: CTTCTGCCCGCCTCCTTCCGGGCCCCGGGGGGTGTCCAGGCCCATGCGTCGTCCGCGGGGAGACGAGATAGGCGGACACT [ZIKV60]
- binding signal (ratio ZIKV NS1/DENV2 NS1 bound) [1]: 14.8
- binding signal (ratio ZIKV NS1/DENV4 NS1 bound) [2]: 14.8
